Target: HDAC1 (histone deacetylase 1), wild-type, Q13547
Sequence (Q13547 whole entry): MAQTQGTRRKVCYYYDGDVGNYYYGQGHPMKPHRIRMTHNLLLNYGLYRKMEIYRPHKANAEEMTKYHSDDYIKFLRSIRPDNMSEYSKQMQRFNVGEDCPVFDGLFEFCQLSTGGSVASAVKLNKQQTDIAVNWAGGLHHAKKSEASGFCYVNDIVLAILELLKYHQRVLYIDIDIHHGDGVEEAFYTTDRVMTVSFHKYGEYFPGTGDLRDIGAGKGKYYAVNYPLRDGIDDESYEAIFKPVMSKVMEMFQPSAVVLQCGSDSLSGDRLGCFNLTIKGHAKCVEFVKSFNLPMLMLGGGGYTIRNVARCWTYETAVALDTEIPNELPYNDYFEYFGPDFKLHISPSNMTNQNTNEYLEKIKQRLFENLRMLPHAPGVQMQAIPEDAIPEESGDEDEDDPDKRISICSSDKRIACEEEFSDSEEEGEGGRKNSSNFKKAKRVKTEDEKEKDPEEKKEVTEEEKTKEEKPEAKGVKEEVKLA

B1: SENP1 (Sentrin/SUMO-specific protease 1), wild-type (protein)
chain: MDDIADRMRMDAGEVTLVNHNSVFKTHLLPQTGFPEDQLSLSDQQILSSRQGHLDRSFTCSTRSAAYNPSYYSDNPSSDSFLGSGDLRTFGQSANGQWRNSTPSSSSSLQKSRNSRSLYLETRKTSSGLSNSFAGKSNHHCHVSAYEKSFPIKPVPSPSWSGSCRRSLLSPKKTQRRHVSTAEETVQEEEREIYRQLLQMVTGKQFTIAKPTTHFPLHLSRCLSSSKNTLKDSLFKNGNSCASQIIGSDTSSSGSASILTNQEQLSHSVYSLSSYTPDVAFGSKDSGTLHHPHHHHSVPHQPDNLAASNTQSEGSDSVILLKVKDSQTPTPSSTFFQAELWIKELTSVYDSRARERLRQIEEQKALALQLQNQRLQEREHSVHDSVELHLRVPLEKEIPVTVVQETQKKGHKLTDSEDEFPEITEEMEKEIKNVFRNGNQDEVLSEAFRLTITRKDIQTLNHLNWLNDEIINFYMNMLMERSKEKGLPSVHAFNTFFFTKLKTAGYQAVKRWTKKVDVFSVDILLVPIHLGVHWCLAVVDFRKKNITYYDSMGGINNEACRILLQYLKQESIDKKRKEFDTNGWQLFSKKSQEIPQQMNGSDCGMFACKYADCITKDRPINFTQQHMPYFRKRMVWEILHRKLL
B1 was tested, and the “deacetylase activity of HDAC1 precipitates” value was “In the presence of SENP1, the deacetylase activity of HDAC1 precipitates had a 70% reduction”.

Reference: patent US20060057623
